Assay [1] addresses human Claudin 18.2 expressed on cells (HEK293/human Claudin 18.2; CHO-K1/human Claudin 18.2) (human) (UniProt P56856). As to the kind of experiment: cell-based or functional assay.
The target of assay [2] is recombinant human Claudin 18.2 protein (GenScript, Z03504) (human) (UniProt P56856). Description: indirect ELISA, plate coated with recombinant human Claudin 18.2, anti-human IgG Fc-HRP detection.
For assay [3], the target named is human Claudin 18.2 expressed on cells (HEK293/human Claudin 18.2; CHO-K1/human Claudin 18.2) (human) (UniProt P56856). Description: flow cytometry on HEK293 cells expressing human Claudin 18.2. For orientation: Flow cytometry measures light scatter and fluorescence of single cells or particles in a stream.
The target in assay [4] is recombinant human Claudin 18.2 protein (GenScript, Z03504) (human) (UniProt P56856). As to the kind of experiment: competition ELISA on coated recombinant human Claudin 18.2; unlabelled IMAB362 against biotinylated IMAB362 (0.72 µg/ml). In general terms: ELISA stands for enzyme-linked immunosorbent assay.
Assay [5] shares this target. Description: SPR Biacore 8K, antibody captured via Fc, human Claudin 18.2 protein as analyte.

For the substance Human IgG1 (antibody), in assay [1], the ADCC reporter gene assay (CHO-K1/Claudin 18.2 target cells, GS-J2C/CD16A 158V effector cells): EC50 came to 352 nM; the ADCC reporter gene assay (CHO-K1/Claudin 18.2 target cells, GS-J2C/CD16A 158V effector cells): Top turned out to be 90500; the CDC on CHO-K1/human Claudin 18.2 cells: EC50 was 23.7; the CDC on CHO-K1/human Claudin 18.2 cells: Top came to 5.61%.
Turning to “Zolbetuximab (IMAB362, HuIgG1) (antibody)”, in assay [2], the EC50 is 1.53 nM. For the same substance, the EC50 in assay [3] turned out to be 7.8 nM. In addition, the IC50 in assay [4] amounted to 1.79 nM. Besides, in assay [1], the ADCC reporter gene assay (CHO-K1/Claudin 18.2 target cells, GS-J2C/CD16A 158V effector cells): EC50 amounted to 0.758 nM; the ADCC reporter gene assay (CHO-K1/Claudin 18.2 target cells, GS-J2C/CD16A 158V effector cells): Top stood at 213000; the CDC on CHO-K1/human Claudin 18.2 cells: Top worked out at 93%. Moreover, the Kd in assay [5] is 39.3 nM.

As a reminder, the EC50 is the midpoint of the concentration-response curve. One may read the IC50 as the concentration at which inhibition is half-maximal. As usually defined, the Kd is a measure of binding affinity in units of concentration.
